In general, stoichiometry N refers to a count of units in the complex or per binding partner.

This note sets out measurements from article PMC13066552 (Nature Communications, 2026).

The data set deals with the molecule itself. Briefly: methyl-TROSY NMR spectra compared.

B1: Bpa 45-153 (domain or fragment)
chain: AKVMRIGTMIKQLLEEVRAAPLDEASRNRLRDIHATSIRELEDGLAPELREELDRLTLPFNEDAVPSDAELRIAQAQLVGWLEGLFHGIQTALFAQQMAARAQLQQMRQ
As for B1, the “stoichiometry N” value came out at 4 subunits.
